Publication PMC7367873, “Dissecting the sequence determinants for dephosphorylation by the catalytic subunits of phosphatases PP1 and PP2A” (Nature Communications, 2020)

How the values were obtained:
[1] = test system: GFP-14-3-3β and its binding proteins; test: GFP-14-3-3β co-IP with LC-MS/MS label-free quantification, untreated versus PP1c-treated; parameters: species or system human; conditions: for Difference (log2), PP1 vs untreated: 3 replicates each
GFP-14-3-3β = GFP-14-3-3β co-IP with LC-MS/MS, untreated GFP-14-3-3β versus GFP control (14-3-3 interactome); format: binding, human; conditions: for Difference (log2), untreated vs GFP: 3 replicates each
[2] = PP1 vs untreated, LFQ intensities
[3] = untreated vs GFP, LFQ intensities

| Molecule | Difference (log2), PP1 vs untreated [1, 2] [log2] | Difference (log2), untreated vs GFP (GFP-14-3-3β; [3]) [log2] | Difference (log2), PP1 vs untreated ([1]; log2 difference, pairwise comparison PP1 vs untreated, label-free quantification) | Difference (log2), untreated vs GFP (GFP-14-3-3β; log2 difference, pairwise comparison untreated vs GFP, label-free quantification) | Difference ([1]; GFP-14-3-3β co-IP, PP1vsUntrted, Perseus raw output, LFQ intensity difference) | Difference (GFP-14-3-3β; UntrtedvsGFP, Perseus raw output, LFQ intensity difference) |
| --- | --- | --- | --- | --- | --- | --- |
| C14orf166 (protein, UniProt Q9Y224 1-244, looked up) RNA transcription, …: MFRRKLTALDYHNPAGFNCKDETEFRNFIVWLEDQKIRHYKIEDRGNLRNIHSSDWPKFFEKYLRDVNCPFKIQDRQEAIDWLLGLAVRLEYGDNAEKYKDLVPDNSKTADNATKNAEPLINLDVNNPDFKAGVMALANLLQIQRHDDYLVMLKAIRILVQERLTQDAVAKANQTKEGLPVALDKHILGFDTGDAVLNEAAQILRLLHIEELRELQTKINEAIVAVQAIIADPKTDHRLGKVGR | 0.4707 | 1.488 | – | – | – | – |
| SLC25A5 (protein, UniProt P05141 1-298, looked up) ADP/ATP translocase 2: MTDAAVSFAKDFLAGGVAAAISKTAVAPIERVKLLLQVQHASKQITADKQYKGIIDCVVRIPKEQGVLSFWRGNLANVIRYFPTQALNFAFKDKYKQIFLGGVDKRTQFWLYFAGNLASGGAAGATSLCFVYPLDFARTRLAADVGKAGAEREFRGLGDCLVKIYKSDGIKGLYQGFNVSVQGIIIYRAAYFGIYDTAKGMLPDPKNTHIVISWMIAQTVTAVAGLTSYPFDTVRRRMMMQSGRKGTDIMYTGTLDCWRKIARDEGGKAFFKGAWSNVLRGMGGAFVLVLYDEIKKYT | 0.4677 | 0.2489 | – | – | – | – |
| OASL (protein, UniProt Q15646 2-514, looked up) 2'-5'-oligoadenylate …: ALMQELYSTPASRLDSFVAQWLQPHREWKEEVLDAVRTVEEFLRQEHFQGKRGLDQDVRVLKVVKVGSFGNGTVLRSTREVELVAFLSCFHSFQEAAKHHKDVLRLIWKTMWQSQDLLDLGLEDLRMEQRVPDALVFTIQTRGTAEPITVTIVPAYRALGPSLPNSQPPPEVYVSLIKACGGPGNFCPSFSELQRNFVKHRPTKLKSLLRLVKHWYQQYVKARSPRANLPPLYALELLTIYAWEMGTEEDENFMLDEGFTTVMDLLLEYEVICIYWTKYYTLHNAIIEDCVRKQLKKERPIILDPADPTLNVAEGYRWDIVAQRASQCLKQDCCYDNRENPISSWNVKRARDIHLTVEQRGYPDFNLIVNPYEPIRKVKEKIRRTRGYSGLQRLSFQVPGSERQLLSSRCSLAKYGIFSHTHIYLLETIPSEIQVFVKNPDGGSYAYAINPNSFILGLKQQIEDQQGLPKKQQQLEFQGQVLQDWLGLGIYGIQDSDTLILSKKKGEALFPAS | – | – | 2.113 | -1.1672 | – | – |
| MYO1C (protein, UniProt O00159 1-1063, looked up) Unconventional myosin-Ic: MALQVELVPTGEIIRVVHPHRPCKLALGSDGVRVTMESALTARDRVGVQDFVLLENFTSEAAFIENLRRRFRENLIYTYIGPVLVSVNPYRDLQIYSRQHMERYRGVSFYEVPPHLFAVADTVYRALRTERRDQAVMISGESGAGKTEATKRLLQFYAETCPAPERGGAVRDRLLQSNPVLEAFGNAKTLRNDNSSRFGKYMDVQFDFKGAPVGGHILSYLLEKSRVVHQNHGERNFHIFYQLLEGGEEETLRRLGLERNPQSYLYLVKGQCAKVSSINDKSDWKVVRKALTVIDFTEDEVEDLLSIVASVLHLGNIHFAANEESNAQVTTENQLKYLTRLLSVEGSTLREALTHRKIIAKGEELLSPLNLEQAAYARDALAKAVYSRTFTWLVGKINRSLASKDVESPSWRSTTVLGLLDIYGFEVFQHNSFEQFCINYCNEKLQQLFIELTLKSEQEEYEAEGIAWEPVQYFNNKIICDLVEEKFKGIISILDEECLRPGEATDLTFLEKLEDTVKHHPHFLTHKLADQRTRKSLGRGEFRLLHYAGEVTYSVTGFLDKNNDLLFRNLKETMCSSKNPIMSQCFDRSELSDKKRPETVATQFKMSLLQLVEILQSKEPAYVRCIKPNDAKQPGRFDEVLIRHQVKYLGLLENLRVRRAGFAYRRKYEAFLQRYKSLCPETWPTWAGRPQDGVAVLVRHLGYKPEEYKMGRTKIFIRFPKTLFATEDALEVRRQSLATKIQAAWRGFHWRQKFLRVKRSAICIQSWWRGTLGRRKAAKRKWAAQTIRRLIRGFVLRHAPRCPENAFFLDHVRTSFLLNLRRQLPQNVLDTSWPTPPPALREASELLRELCIKNMVWKYCRSISPEWKQQLQQKAVASEIFKGKKDNYPQSVPRLFISTRLGTDEISPRVLQALGSEPIQYAVPVVKYDRKGYKPRSRQLLLTPNAVVIVEDAKVKQRIDYANLTGISVSSLSDSLFVLHVQRADNKQKGDVVLQSDHVIETLTKTALSANRVNSININQGSITFAGGPGRDGTIDFTPGSELLITKAKNGHLAVVAPRLNSR | 0.4615 | -0.5566 | – | – | 0.4615 | -0.5566 |
| SSBP1 (protein, UniProt Q04837 17-148, looked up) Single-stranded DNA-binding …: ESETTTSLVLERSLNRVHLLGRVGQDPVLRQVEGKNPVTIFSLATNEMWRSGDSEVYQLGDVSQKTTWHRISVFRPGLRDVAYQYVKKGSRIYLEGKIDYGEYMDKNNVRRQATTIIADNIIFLSDQTKEKE | 0.4442 | -1.1951 | – | – | – | – |
| TUBA1C (protein, UniProt Q9BQE3 1-449, looked up) Tubulin alpha-1C chain: MRECISIHVGQAGVQIGNACWELYCLEHGIQPDGQMPSDKTIGGGDDSFNTFFSETGAGKHVPRAVFVDLEPTVIDEVRTGTYRQLFHPEQLITGKEDAANNYARGHYTIGKEIIDLVLDRIRKLADQCTGLQGFLVFHSFGGGTGSGFTSLLMERLSVDYGKKSKLEFSIYPAPQVSTAVVEPYNSILTTHTTLEHSDCAFMVDNEAIYDICRRNLDIERPTYTNLNRLISQIVSSITASLRFDGALNVDLTEFQTNLVPYPRIHFPLATYAPVISAEKAYHEQLTVAEITNACFEPANQMVKCDPRHGKYMACCLLYRGDVVPKDVNAAIATIKTKRTIQFVDWCPTGFKVGINYQPPTVVPGGDLAKVQRAVCMLSNTTAVAEAWARLDHKFDLMYAKRAFVHWYVGEGMEEGEFSEAREDMAALEKDYEEVGADSADGEDEGEEY | 0.444 | 0.0777 | – | – | – | – |
| MAP4K4 (protein, UniProt O95819 2-1239, looked up) Mitogen-activated protein …: ANDSPAKSLVDIDLSSLRDPAGIFELVEVVGNGTYGQVYKGRHVKTGQLAAIKVMDVTEDEEEEIKLEINMLKKYSHHRNIATYYGAFIKKSPPGHDDQLWLVMEFCGAGSITDLVKNTKGNTLKEDWIAYISREILRGLAHLHIHHVIHRDIKGQNVLLTENAEVKLVDFGVSAQLDRTVGRRNTFIGTPYWMAPEVIACDENPDATYDYRSDLWSCGITAIEMAEGAPPLCDMHPMRALFLIPRNPPPRLKSKKWSKKFFSFIEGCLVKNYMQRPSTEQLLKHPFIRDQPNERQVRIQLKDHIDRTRKKRGEKDETEYEYSGSEEEEEEVPEQEGEPSSIVNVPGESTLRRDFLRLQQENKERSEALRRQQLLQEQQLREQEEYKRQLLAERQKRIEQQKEQRRRLEEQQRREREARRQQEREQRRREQEEKRRLEELERRRKEEEERRRAEEEKRRVEREQEYIRRQLEEEQRHLEVLQQQLLQEQAMLLECRWREMEEHRQAERLQRQLQQEQAYLLSLQHDHRRPHPQHSQQPPPPQQERSKPSFHAPEPKAHYEPADRAREVEDRFRKTNHSSPEAQSKQTGRVLEPPVPSRSESFSNGNSESVHPALQRPAEPQVPVRTTSRSPVLSRRDSPLQGSGQQNSQAGQRNSTSIEPRLLWERVEKLVPRPGSGSSSGSSNSGSQPGSHPGSQSGSGERFRVRSSSKSEGSPSQRLENAVKKPEDKKEVFRPLKPADLTALAKELRAVEDVRPPHKVTDYSSSSEESGTTDEEDDDVEQEGADESTSGPEDTRAASSLNLSNGETESVKTMIVHDDVESEPAMTPSKEGTLIVRQTQSASSTLQKHKSSSSFTPFIDPRLLQISPSSGTTVTSVVGFSCDGMRPEAIRQDPTRKGSVVNVNPTNTRPQSDTPEIRKYKKRFNSEILCAALWGVNLLVGTESGLMLLDRSGQGKVYPLINRRRFQQMDVLEGLNVLVTISGKKDKLRVYYLSWLRNKILHNDPEVEKKQGWTTVGDLEGCVHYKVVKYERIKFLVIALKSSVEVYAWAPKPYHKFMAFKSFGELVHKPLLVDLTVEEGQRLKVIYGSCAGFHAVDVDSGSVYDIYLPTHIQCSIKPHAIIILPNTDGMELLVCYEDEGVYVNTYGRITKDVVLQWGEMPTSVAYIRSNQTMGWGEKAIEIRSVETGHLDGVFMHKRAQRLKFLCERNDKVFFASVRSGGSSQVYFMTLGRTSLLSW | 0.4439 | 0.6698 | – | – | – | – |
| IMMT (protein, UniProt Q16891 34-758, looked up) MICOS complex subunit MIC60: STSGSSGLTTGKIAGAGLLFVGGGIGGTILYAKWDSHFRESVEKTIPYSDKLFEMVLGPAAYNVPLPKKSIQSGPLKISSVSEVMKESKQPASQLQKQKGDTPASATAPTEAAQIISAAGDTLSVPAPAVQPEESLKTDHPEIGEGKPTPALSEEASSSSIRERPPEEVAARLAQQEKQEQVKIESLAKSLEDALRQTASVTLQAIAAQNAAVQAVNAHSNILKAAMDNSEIAGEKKSAQWRTVEGALKERRKAVDEAADALLKAKEELEKMKSVIENAKKKEVAGAKPHITAAEGKLHNMIVDLDNVVKKVQAAQSEAKVVSQYHELVVQARDDFKRELDSITPEVLPGWKGMSVSDLADKLSTDDLNSLIAHAHRRIDQLNRELAEQKATEKQHITLALEKQKLEEKRAFDSAVAKALEHHRSEIQAEQDRKIEEVRDAMENEMRTQLRRQAAAHTDHLRDVLRVQEQELKSEFEQNLSEKLSEQELQFRRLSQEQVDNFTLDINTAYARLRGIEQAVQSHAVAEEEARKAHQLWLSVEALKYSMKTSSAETPTIPLGSAVEAIKANCSDNEFTQALTAAIPPESLTRGVYSEETLRARFYAVQKLARRVAMIDETRNSLYQYFLSYLQSLLLFPPQQLKPPPELCPEDINTFKLLSYASYCIEHGDLELAAKFVNQLKGESRRVAQDWLKEARMTLETKQIVEILTAYASAVGIGTTQVQPE | 0.4434 | 0.387 | – | – | – | – |
| ATP5J2 (protein, UniProt P56134 2-94, looked up) ATP synthase F(0) complex …: ASVGECPAPVPVKDKKLLEVKLGELPSWILMRDFSPSGIFGAFQRGYYRYYNKYINVKKGSISGITMVLACYVLFSYSFSYKHLKHERLRKYH | 0.4378 | -0.05352 | – | – | – | – |
